Patent US20140140975A1

Columns and labels:
[1] = target: recombinant human GRX1 (UniProt P35754)
[2] = target: Fas death receptor (mouse) (UniProt P25446); assay: cell-based or functional assay
UniProt P25446, sequence (P25446 22-327): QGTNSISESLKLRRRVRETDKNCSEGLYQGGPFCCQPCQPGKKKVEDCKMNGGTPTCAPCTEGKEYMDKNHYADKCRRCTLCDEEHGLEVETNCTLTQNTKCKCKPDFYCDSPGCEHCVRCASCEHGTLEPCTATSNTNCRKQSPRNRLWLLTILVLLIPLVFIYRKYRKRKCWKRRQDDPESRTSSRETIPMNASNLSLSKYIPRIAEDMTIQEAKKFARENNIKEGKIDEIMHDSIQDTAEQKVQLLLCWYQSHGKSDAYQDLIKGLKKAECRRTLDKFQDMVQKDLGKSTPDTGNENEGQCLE

UniProt P35754, sequence (P35754 whole entry): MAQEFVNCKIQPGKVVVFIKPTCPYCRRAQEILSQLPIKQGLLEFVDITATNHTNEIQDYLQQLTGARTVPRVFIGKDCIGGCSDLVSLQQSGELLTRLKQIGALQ

Substance: recombinant Caspase 8
- cleavage of GRX1 (Western Blotting) [1]: Treatment of recombinant human GRX1 with recombinant Caspase 8 or 3 results in cleavage of GRX1

Substance: recombinant Caspase 3
- cleavage of GRX1 (Western Blotting) [1]: Treatment of recombinant human GRX1 with recombinant Caspase 8 or 3 results in cleavage of GRX1

Substance: Fas Ligand
- catalytic activity of GRX1 in lung epithelial cells [2]: 50 % decrease
